B1: CpcA (phycocyanin alpha subunit) (natural protein)
chain: not shown
notes: phycocyanin alpha subunit CpcA, Synechocystis sp; PCC 6803; cross-linked through its N-terminal M1; In the assay it stood inside the assembled phycobilisome; also called PC alpha subunit; source: endogenous, Synechocystis 6803 cells; in isolated phycobilisomes
B2: ferredoxin-NADP+ oxidoreductase, large isoform (FNRL) (enzyme, UniProt Q55318 1-413, looked up)
chain: MYSPGYVATSSRQSDAGNRLFVYEVIGLSQSTMTDGLDYPIRRSGSTFITVPLKRMNQEMRRITRMGGKIVSIKPLEGDSPLPHTEGIAKPSQSEGSGSEAVANPAPESNKTMTTTPKEKKADDIPVNIYRPKTPYIGKVLENYPLVREGAIGTVQHLTFDLSAGDLRYLEGQSIGIIPPGEDDKGKPHKLRLYSIASTRHGDFGDDKTVSLCVRQLEYQNEAGETVQGVCSTYLCNIKEGDDIAITGPVGKEMLLPPDEDANIVMLATGTGIAPFRAFLWRMFKEQHEDYKFKGLAWLIFGIPKSENILYKDDLEKMAAEFPDNFRLTYAISREQQNAEGGRMYIQHRVAENAEELWNLMQNPKTHTYMCGLKGMEPGIDEAFTALAEQNGKEWTTFQREMKKEHRWHVETY
modifications: acetylation on the N terminus in a part of the molecules (6% in CpcG-PBS, 12% in CpcL-PBS)
notes: ferredoxin-NADP+ oxidoreductase, large isoform FNRL, Synechocystis sp; PCC 6803, slr1643; The small FNR isoform of the same gene is not meant; also called large FNR; Fd-NADP+ oxidoreductase; source: endogenous, Synechocystis 6803 wild-type and ΔAB cells; isolated with the phycobilisomes on a sucrose gradient
B3: CpcB (phycocyanin beta subunit) (natural protein, UniProt Q54714 1-172, looked up)
chain: MFDVFTRVVSQADARGEYLSGSQLDALSATVAEGNKRIDSVNRITGNASAIVSNAARALFAEQPQLIQPGGNAYTSRRMAACLRDMEIILRYVTYATFTGDASVLEDRCLNGLRETYVALGVPGASVAAGVQKMKEAALDIVNDPNGITRGDCSAIVAEIAGYFDRAAAAVA
notes: phycocyanin beta subunit CpcB, Synechocystis sp; PCC 6803; N-terminal peptide 1MFDVFTR found cross-linked through the primary amine of M1; In the assay it stood inside the assembled phycobilisome; also called PC beta subunit; source: endogenous, Synechocystis 6803 wild-type and ΔAB cells; in isolated CpcG-PBS and CpcL-PBS

Assays:
[1] = target: B2; assay: cross-linking; isolated CpcG-PBS and CpcL-PBS (partners co-purified in the native complex), 0.1 uM in 0.2 M K-phosphate, 1:1 BS3-H12/D12, 10 min in the dark at room temperature, cross-linker/PBS 10:1, 50:1 and 100:1; LysC and trypsin digestion, LC-MS/MS, ICC-CLASS and pLink; conditions: both partners purified
[2] = target: T1, CpcL-PBS (CpcL-type phycobilisome, without allophycocyanin) (Synechocystis sp. strain PCC 6803 …, UniProt Q54715 1-162; Q54714 1-172; P73203 1-291; P73204 1-273; P73202 1-83; P74625 …); assay: co-sedimentation; step-gradient sucrose density ultracentrifugation (370,000 x g overnight) of broken cells in 0.8 M K-phosphate pH 7.5 after 2% Triton X-100; blue bands analysed by SDS-PAGE (CBB R-250) and by trypsin digestion with LC-MS/MS label-free quantification (PEAKS; Protein Metrics); conditions: partners not purified
T1 construct: phycocyanin alpha subunit CpcA, Synechocystis sp; PCC 6803; phycocyanin beta subunit CpcB, Synechocystis sp; rod linker protein CpcC1, Synechocystis sp; rod linker protein CpcC2, Synechocystis sp; rod-capping linker CpcD, Synechocystis sp; PCC 6803, ssl3093; CpcL (formerly CpcG2), Synechocystis sp; PCC 6803, sll1471; the first methionine is removed posttranslationally, threonine is the first …

Binder	binding result [1]	fold higher FNRL content than in CpcG-PBS, normalised to CpcC1 [2] [fold]	ratio of FNRL content, CpcL-PBS to CpcG-PBS (manual quantification, Protein Metrics) [2]	ratio of FNRL content, CpcL-PBS/CpcG-PBS (PEAKS label-free quantification) [2]
B1	binds	–	–	–
B2	–	2.4	1.9	1.99
B3	binds	–	–	–

— paper PMC6479007, “Phycobilisomes Harbor FNRL in Cyanobacteria” (mBio, 2019)
